B1: KLHL14 (parent)
chain: NETGYLSSVECYNLETNEWRYVSS
B2: SPOPL (parent)
chain: PDDKLTLFCEVSVVQDSVNISGHT

Variants of: B1
Experiment: protein stability index of a GFP-peptide fusion (GPS, HEK-293T) (PSI 1-6); higher = more stable
Settings: c terminus: a fixed tail appended
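Further: lentivirally expressed fusions sorted by FACS into six bins by GFP to DsRed ratio, PSI derived from sequencing read proportions per bin multiplied by bin number.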

Protein stability index of substitutions, site by site:
S24: T 3.65 | M 3.93 | N 3.91 | W 3.44 | C 4 | I 3.02 | P 4.2 | G 3.82 | A 4.1 | V 3.38 | F 3.94 | E 3.77 | Q 3.6 | L 3.41 | R 3.61 | Y 3.19 | H 3.82 | D 3.83 | K 4.28
R20: S 3.04 | T 2.69 | Y 2.18 | V 2.32 | W 2.41
Y21: V 3.57 | F 1.83 | D 4 | T 3.93 | H 2.96 | E 3.66 | G 3.14 | C 3.57 | N 3.67 | W 3.5 | R 3.24 | S 3.61 | L 3.1 | I 2.87 | P 3.21 | K 2.89 | Q 3.02 | A 3.79 | M 3.82
S23: K 3.27 | A 3.19 | F 3.67 | L 2.07 | E 3.68 | V 3.76 | R 2.87 | M 3.59 | Q 3.73 | N 3.98 | D 4.24 | Y 3.71 | I 4.09 | C 3.22 | T 3.38 | G 4.02 | H 3.26 | P 3.39
V22: D 3.8 | I 2.47 | N 3.27 | L 2.81 | G 3.85 | M 2.95 | E 4.18 | K 3.25 | Q 3.73 | R 3.2 | T 3.01 | S 2.71 | C 2.29 | P 3.16 | F 2.14 | A 3.42 | W 2.22 | H 2.18 | Y 3.02

Variants of: B2
Experiment: as above
Settings: c terminus: a fixed tail appended

Protein stability index of substitutions, site by site:
C9: P 4.91 | Y 2.07 | H 4.09 | K 4.34 | G 4.42 | N 4.34 | E 4.47 | F 2.35 | L 3.25 | Q 4.21 | I 3.05 | S 4.52 | T 3.83 | D 4.71 | R 4.54 | W 2.62 | V 3.85 | M 2.13 | A 3.47
L7: I 1.25 | K 4.78 | A 4.2 | T 3.88 | M 2.68 | E 4.9 | Q 4.62 | P 4.52 | D 4.88 | S 3.49 | W 1.75 | R 3.94 | C 2.72 | N 4.32 | Y 2.72 | H 3.79 | F 1.81 | G 4.28 | V 1.92
V13: T 3.79 | P 3.99 | F 2.03 | R 4.14 | M 2.12 | H 3.63 | S 3.6 | I 2.51 | C 2.57 | Y 1.94 | Q 3.95 | A 3.35 | L 2.02 | E 4.61 | K 3.11 | G 4.14 | N 4.03 | W 2.73 | D 4.61
L5: Q 3.73 | T 3.33 | I 1.88 | V 1.81 | F 1.52 | M 2.21 | N 3.95 | E 3.9 | Y 2.28 | H 3.96 | D 4.41 | P 4.1 | C 2.88 | G 3.07 | S 3.63 | W 1.26 | R 3.85 | A 3.66 | K 3.82
D2: S 1.74 | F 1.5 | W 3.07 | V 3.9 | A 1.61 | I 2.02 | P 2.71 | Q 3.11 | K 2.02 | H 2.04 | Y 1.38 | L 1.46 | E 2.29 | R 2.53 | C 1.62 | G 2.44 | M 1.61 | T 1.38 | N 1.44
V14: G 2.54 | N 2.62 | M 2.01 | K 2.7 | L 1.71 | I 2.56 | C 1.66 | D 3.07 | H 3.19 | E 3.34 | F 2.08 | A 2.63
S12: R 2.32 | P 3.81 | D 3.66 | L 2.1 | Q 1.73 | H 1.71 | F 2.22 | A 3.08 | I 2.11 | E 2.23 | M 1.79 | K 2 | V 2.53 | N 2.79 | G 1.94 | C 2.73 | T 1.71 | W 1.98
T6: R 2.02 | S 2.32 | Y 1.25 | M 1.79 | A 2.15 | I 1.8 | L 1.73 | Q 2.58 | G 3.19 | N 2.96 | D 2.84 | E 2.33 | P 3.47 | F 2.98 | W 3.41 | H 2.4 | K 3.34 | C 1.81
E10: H 2.12 | T 3.3 | R 1.94 | A 2.48 | Q 2.27 | W 2.53 | G 2.52 | S 1.58 | I 2.63 | C 2.81 | K 1.45 | V 3.33 | L 3.02 | D 2.76 | P 3.44 | N 2.74 | M 3.02 | F 3.15
D3: K 1.83 | Q 1.95 | G 2.43 | I 2.06 | W 1.73 | T 1.51 | P 2.5 | H 1.47 | A 2.06 | R 2.05 | S 1.79 | C 1.75 | V 1.8 | F 1.87 | E 2.2 | N 2.44 | M 1.93 | L 2.11 | Y 1.97
F8: H 3.64 | V 1.97 | K 3.48 | S 3.96 | I 1.3 | W 1.62 | D 4.94 | T 2.9 | E 4.39 | R 2.77 | C 3.22 | A 3.65 | P 4.79 | L 2.91 | M 2.86 | Y 2.08 | G 4.82 | N 4.86 | Q 4.5
P1: E 2.2 | H 2.18 | F 2.36 | M 1.81 | R 2.1 | K 2.02 | Y 1.69 | D 2.17 | W 2.11 | T 2 | L 2.2 | C 1.93 | A 1.81 | S 2.05 | G 1.99 | Q 2.02 | I 3.71 | V 1.36 | N 2.42
V11: I 1.95 | G 4.76 | C 3.34 | W 2.14 | M 2.77 | E 4.81 | H 4.28 | Y 2.46 | A 4.34 | F 2.61 | R 3.67 | P 4.58 | Q 4.62 | D 4.64 | K 4.85 | S 4.47 | L 1.93 | N 4.78 | T 4.26
K4: C 1.56 | S 2.23 | F 2.19 | Q 2.16 | M 1.58 | Y 2.26 | R 1.79 | N 1.98 | L 2.39 | G 2.12 | I 1.48 | T 1.53 | A 1.89 | H 1.95 | E 2.32 | D 2.81 | P 2.27

Source: the supplement of paper PMC10567573
